Results from patent US20050037477A1 (BOARD OF REGENTS OF THE UNIVERSITY OF OKLAHOMA, published 2005).

Molecular target: T1, human C-terminal HPC-4 epitope-tagged C1β3Gal-T (core 1 β3-galactosyltransferase), full-length (human, UniProt Q9NS00 1-363)
T1 construct: mature; also called HPC4-tagged C1β3Gal-T; recombinant C1β3Gal-T
Assay: Ni-NTA capture of His6-tagged wtCosmc-1 from Hi-5 and 293T cell extracts, C1β3Gal-T activity on the beads
Protocol: Capture of Human Cosmc-1 on Ni-NTA-Superflow-The Ni-NTA-Superflow beads (100 ml) (Qiagen, Inc.) equilibrated with the Ni-NTA washing buffer containing 50 mM NaH₂PO₄, 300 mM NaCl, 20 mM imidazole, 0.1% Triton X-100 (pH 7.8) were incubated with the cell extracts overnight at 4° C. on a rotator. The beads were washed 5 times with 1 ml of the washing buffer. One portion of the beads was removed for C1β3Gal-T enzyme assay. The bound material in the other portion was eluted with 100 ml of eluting solution (50 mM NaH₂PO₄, 300 mM NaCl, 250 mM imidazole, and 0.1% Triton X-100).
To confirm that Cosmc-1 and C1β3Gal-T can associate, we performed Western Blots on the HPC4-tagged C1β3Gal-T expressed in Hi5 cells and 293T cells with or without His₆-tagged wtCosmc-1 or mCosmc-1. When HPC4-tagged C1β3Gal-T was expressed in Hi5 cells in the absence or presence of wtCosmc-1 or mCosmc-1, a considerable amount protein was generated (FIG. 2G), but the enzyme lacked activity except when co-expressed with wtCosmc-1 (FIG. 2A-C). More importantly, HPC4-tagged C1β3Gal-T was present with His₆-tagged wtCosmc-1 when the latter was captured on Ni-NTA (FIGS. 2G,H). […] There was a slight amount of HPC4-tagged C1β3Gal-T detected in the Ni-NTA bound material in the absence of His₆-tagged wtCosmc-1 in 293T cells (FIG. 2H). […]

T1 sequence (Q9NS00 other isoform, or with tags, fused parts or gaps): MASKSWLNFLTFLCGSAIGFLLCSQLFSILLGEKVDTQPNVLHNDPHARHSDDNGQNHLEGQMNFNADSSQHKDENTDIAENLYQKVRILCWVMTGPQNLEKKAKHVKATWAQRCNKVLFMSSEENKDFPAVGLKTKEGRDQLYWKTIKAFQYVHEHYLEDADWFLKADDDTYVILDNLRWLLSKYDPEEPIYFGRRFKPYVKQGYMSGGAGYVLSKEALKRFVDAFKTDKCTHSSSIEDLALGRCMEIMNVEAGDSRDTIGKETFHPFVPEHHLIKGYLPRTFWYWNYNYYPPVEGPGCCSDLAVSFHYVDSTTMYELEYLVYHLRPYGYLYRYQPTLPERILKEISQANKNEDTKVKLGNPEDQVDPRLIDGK

binding result: binds
B1: human C-terminal His6-tagged Cosmc-1 (wild-type; Core 1 β3-Gal-T Specific Molecular Chaperone-1) (other)
chain: MLSESSSFLKGVMLGSIFCALITMLGHIRIGHGNRMHHHEHHHLQAPNKEDILKISEDERMELSKSFRVYCIILVKPKDVSLWAAVKETWTKHCDKAEFFSSENVKVFESINMDTNDMWLMMRKAYKYAFDKYRDQYNWFFLARPTTFAIIENLKYFLLKKDPSQPFYLGHTIKSGDLEYVGMEGGIVLSVESMKRLNSLLNIPEKCPEQGGMIWKISEDKQLAVCLKYAGVFAENAEDADGKDVFNTKSVGLSIKEAMTYHPNQVVEGCCSDMAVTFNGLTPNQMHVMMYGVYRLRAFGHIFNDALVFLPPNGSDNDHHHHHH
notes: Co-expressed with C1β3Gal-T in Hi-5 insect cells or 293T cells and captured from Triton X-100 cell extracts on Ni-NTA; also called wtCosmc-1; wt-Cosmc-1
